Here are results for 3 molecules from publication PMC6914384 (Nature, 2018).

In experiment [1] the target is T1, p300 BPΔR module (BRP 1048-1282 with the RING domain 1169-1241 replaced by a single glycine) (UniProt Q09472).
T1 chain: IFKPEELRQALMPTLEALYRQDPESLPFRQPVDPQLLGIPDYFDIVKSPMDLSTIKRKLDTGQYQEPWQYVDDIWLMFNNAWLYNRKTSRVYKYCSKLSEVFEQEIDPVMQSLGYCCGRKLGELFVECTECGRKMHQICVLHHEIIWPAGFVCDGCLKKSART
Description: crystal structure.

The target in experiment [2] is T2, p300 BRP module (bromodomain-RING-PHD), residues 1048-1282 (UniProt Q09472 1048-1282).
T2 sequence: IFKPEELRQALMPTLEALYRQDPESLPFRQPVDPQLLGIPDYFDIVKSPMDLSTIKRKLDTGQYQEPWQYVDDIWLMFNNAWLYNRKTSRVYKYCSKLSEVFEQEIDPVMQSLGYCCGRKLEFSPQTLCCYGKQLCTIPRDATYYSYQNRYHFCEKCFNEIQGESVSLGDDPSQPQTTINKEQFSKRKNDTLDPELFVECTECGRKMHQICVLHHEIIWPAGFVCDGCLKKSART
Briefly: ITC.

No end group written: not given here.

For GLGK(Ac)GGAK(Ac)RHR [11-mer histone peptide H4 (10-20) with acetylated K12 and K16], the binding result in experiment [1] is reported as “binds”.
As for ARTKQTQRKSTGGK(Ac)APRKQL [H3 K14ac (1-20) peptide], in experiment [2], binding was characterised by a dissociation constant (Kd) of 1.76 mM and the “stoichiometry N” value is 1.13.
In the case of ARTKQTQRK(Ac)STGGK(Ac)APRKQL [H3 K9acK14ac (1-20) peptide], in experiment [2], the Kd turned out to be 0.578 mM and the “stoichiometry N” value was 1.06.
